SMILES strings stand for the structures. Where two headings read alike, the source gives them in different places.

The test system of one data set is T-47D cells. The data set can be described thus: In vitro cell uptake (internalization) study in T-47D cells. The class given is cell-based, human. The conditions noted are these: after 4 h, % of total added activity. The method, then: Cell culture. All cell lines were grown in suitable culture medium at 37 °C in a humidified CO2 (5%) atmosphere. The human breast cancer cell lines T-47D, MDA-MB-231 and MCF-7 were grown in Dulbecco’s Modified Eagle Medium (DMEM), supplemented with 10% (v/v) fetal calf serum (FCS) and 1% (v/v) L-Glutamine. For a high expression of the NPY(Y1) receptor on T-47D cells, the medium for this cell line was further supplemented with 0.15% (w/v) β-estradiol. The BT-474 and PC-3 cell lines were grown in RPMI-1640 medium, also supplemented with 10% (v/v) fetal calf serum (FCS) and 1% (v/v) L-Glutamine.
Internalization studies. Cells (T-47D, MDA-MB-231, MCF-7, BT-474 and PC-3, 1.5 × 10^6 cells per well) were seeded into 6-well plates and incubated overnight at 37 °C in a humidified CO2 (5%) atmosphere. The next day, the medium was removed and the cells were washed twice with the respective medium without supplements (ice-cold, 1 mL) and incubated with 3.7–4.0 kBq (0.37–4.0 pmol) of the respective ^68Ga-radiolabeled ligand [^68Ga]22−[^68Ga]26, [^68Ga]27 or [^68Ga]28 (in 1.5 mL medium, containing 0.5% (w/v) BSA) for defined time-points of 1, 2, 3 or 4 h at 37 °C in a humidified CO2 (5%) atmosphere. A 1000-fold excess of the respective peptide (3 or 4) was used for blocking to determine the non-specific cell uptake. At each time point, the medium was removed and the cells were washed twice with the respective medium without supplements (ice-cold, 1 mL). Cells were treated twice with 1 mL glycine buffer (ice-cold, 50 mM glycine, 100 mM NaCl, pH 2.8) for 5 min at room temperature, followed by 2 mL NaOH solution (1 M) for 10 min at 37 °C. The supernatants were collected and the radioactivity measured in a gamma counter. The internalized and surface bound activity was expressed as percentage of measured to total added activity. Each data point was generated thrice in triplicates.

In the next data set the test system is T-47D tumor. The data set can be described thus: Small animal PET/CT imaging in T-47D tumor-bearing mice. Format: in vivo. The conditions noted are these: PET imaging, i.v. 5.5-8.0 MBq, n = 4. The method, then:
In vivo experiments. All animal experiments were performed in compliance with the German animal protection laws and protocols of the local committee (Regierungspräsidium Karlsruhe, approval number: 35-9185.81/G-206/15). 20, six week old female immunodeficient Fox Chase SCID (CB17/Icr-Prkdc^scid/IcrIcoCrl) mice with an average weight of 20 g were subcutaneously implanted with 17β-estradiol pellets (0.36 mg/60 days). 4 days later, the tumors were induced by subcutaneous inoculation of 5 × 10^6 T-47D cells into the left flank of the […]. After induction, the tumors were allowed to grow for 8–10 weeks and reached a diameter of about 0.5 cm. […] After the end of the diagnostic scan, the animals were sacrificed, the organs were collected and measured in a gamma-counter.
The dynamic PET images were reconstructed using the Albira Suite Reconstructor (Bruker) with an iterative dynamic reconstruction with 12 iterations using an 2D-Maximum-Likelihood Expectation-Maximization (MLEM) algorithm and a cubic image voxel size of 0.5 mm after scatter and decay correction. […] The reconstructed PET data were manually fused with the CT images using PMOD 3.6.1.1. and analyzed. Volumes of interest (VOIs) were defined for the quantification of tracer accumulation in heart, liver, kidneys, tumor, and muscle. The results for each VOI were calculated as SUV (kBq/cm^3) averaged for each time frame.

Data set [1] in a line: Ex vivo biodistribution in T-47D tumor-bearing mice. The conditions noted are these: female, Fox Chase SCID (CB17/Icr-Prkdc^scid/IcrIcoCrl), mouse, in vivo, iv, total radioactivity, ex vivo biodistribution at 130 min p.i. The method, then: (§1) In vivo experiments. All animal experiments were performed in compliance with the German animal protection laws and protocols of the local committee (Regierungspräsidium Karlsruhe, approval number: 35-9185.81/G-206/15). 20, six week old female immunodeficient Fox Chase SCID (CB17/Icr-Prkdc^scid/IcrIcoCrl) mice with an average weight of 20 g were subcutaneously implanted with 17β-estradiol pellets (0.36 mg/60 days). 4 days later, the tumors were induced by subcutaneous inoculation of 5 × 10^6 T-47D cells into the left flank of the […]. After induction, the tumors were allowed to grow for 8–10 weeks and reached a diameter of about 0.5 cm. For imaging, the animals were anaesthetized with isoflurane and injected with 5.5–8.0 MBq of the respective radioligand ([^68Ga]24, [^68Ga]24a or [^68Ga]24b) into the lateral tail vein. Dynamic PET images were acquired over 90 min and CT images were obtained within further 30 min. After the end of the diagnostic scan, the animals were sacrificed, the organs were collected and measured in a gamma-counter.

A further data set concerns T-47D tumor-bearing mice. Described as above. The conditions noted are these: 130 min p.i. The method, then:
as §1

Data set [2] can be described thus: Determination of radiotracer lipophilicity (logD, phosphate buffer/1-octanol). Format: physicochemical. The conditions noted are these: phosphate buffer (0.05 M, pH 7.4) / 1-octanol, six independent experiments. On the procedure: Determination of radiotracer lipophilicity. The heterobivalent ligands (22–26) as well as the monomeric reference compounds (27 and 28) were radiolabeled with ^68Ga as described before and 2 µL of the product solution (~65 pmol of the respective radioligand) were added to a mixture of phosphate buffer (0.05 M, pH 7.4, 800 µL) and 1-octanol (800 µL) and incubated for 5 min at ambient temperature under vigorous shaking. Both phases were separated by centrifugation and 100 µL of each phase were measured for radioactivity in a gamma-counter. […] (cpm = counts per minute), cpmw = activity in the aqueous phase [cpm]. These experiments were performed six times independently.

The nature of data set [3]: Stability of the 68Ga-labeled ligands in human serum. The class given is in vitro ADME. The conditions noted are these: after 90 min incubation at 37 °C, radio-HPLC. The method, then:
Determination of the stability of the ligands in human serum. The heterobivalent ligands (22–26) as well as the monomeric reference compounds (27 and 28) were radiolabeled with ^68Ga as described before and 125 µL of the product solution were added to 500 µL of human serum and incubated at 37 °C. At defined time-points of 5, 15, 30, 60 and 90 min, aliquots of 75 µL of the mixture were added to 75 µL of ethanol and the precipitation of serum proteins was enhanced by ice-cooling for 2 min. After centrifugation, supernatant and precipitate were measured for radioactivity and the supernatant was analyzed by analytical radio-HPLC. These experiments were performed thrice.

In the data set with T-47D cells, `CCCC[C@H](NC(=O)[C@H](CCCNC(=N)N)NC(=O)[C@H](Cc1c[nH]c2ccccc12)NC(=O)[C@H](CCCCNC(=O)CON=Cc1ccc(C(=O)NCCOCCOCCOCCOCCC(=O)NCCCN(CCCNC(=O)CCOCCOCCOCCOCCNC(=O)c2ccc(C=NOCC(=O)NCCOCCOCCOCCOCCC(=O)N[C@@H](CCC(N)=O)C(=O)N[C@@H](Cc3c[nH]c4ccccc34)C(=O)N[C@@H](C)C(=O)N[C@H](C(=O)NCC(=O)N[C@@H](Cc3c[nH]cn3)C(=O)N[C@@H](CC(C)C)C(=O)N[C@@H](CCSC)C(N)=O)C(C)C)cc2)CC(=O)NCCOCCOCCOCCOCCC(=O)N[C@@H](CCCCNC(=O)CCC(C(=O)O)N2CCN(CC(=O)O)CCN(CC(=O)O)CC2)C(N)=O)cc1)NC(=O)[C@@H]1CCCN1C(=O)[C@H](CC(N)=O)NC(=O)[C@@H](N)[C@@H](C)CC)C(=O)N[C@@H](CCCNC(=N)N)C(=O)N[C@@H](Cc1ccc(O)cc1)C(N)=O` (some centres unmarked) [[^68Ga]24, metal not drawn] displayed a specific cell uptake of 50.1 ± 2.4%. In addition, the “tumor activity concentration at 85 min” value in the data set with T-47D tumor is listed as 122.03 ± 16.27 kBq/cm^3. The tissue to tissue ratio at 130 min in data set [1] (read-out: tumor-to-blood ratio (T / B)) stood at 2.72 ± 0.43; in data set [1] (read-out: tumor-to-muscle ratio (T / M)), 11.8 ± 1.83. This compound also yielded an adrenal glands uptake with T-47D tumor-bearing mice (adrenal glands) of 3.57 ± 2.18 ID/g in %. Also, the blood uptake with T-47D tumor-bearing mice (blood) came out at 1.13 ± 0.77 ID/g in %. The same compound displayed a bone uptake with T-47D tumor-bearing mice (bone) of 0.26 ± 0.14 ID/g in %. In addition, the brain uptake in the data set on T-47D tumor-bearing mice (brain) came to 0.11 ± 0.14 ID/g in %. Also, the heart uptake with T-47D tumor-bearing mice (heart) is 0.52 ± 0.38 ID/g in %. This compound also came in with a kidneys uptake in the data set with T-47D tumor-bearing mice (kidneys) of 34.79 ± 11.03 ID/g in %. This compound also gave a large intestines uptake in the data set with T-47D tumor-bearing mice (large intestines) of 1.80 ± 0.64 ID/g in %. In the data set on T-47D tumor-bearing mice (liver), this compound showed a liver uptake of 10.02 ± 1.54 ID/g in %. The compound further came in with a lung uptake in the data set with T-47D tumor-bearing mice (lung) of 0.62 ± 0.17 ID/g in %. Besides, in the data set on T-47D tumor-bearing mice (muscle), the muscle uptake turned out to be 0.26 ± 0.18 ID/g in %. The same compound gave a pancreas uptake in the data set with T-47D tumor-bearing mice (pancreas) of 10.54 ± 3.13 ID/g in %. For the same compound, the small intestines uptake in the data set on T-47D tumor-bearing mice (small intestines) is listed as 1.49 ± 0.36 ID/g in %. In the data set on T-47D tumor-bearing mice (spleen), this compound registered a spleen uptake of 1.32 ± 0.33 ID/g in %. The compound also showed a stomach uptake in the data set on T-47D tumor-bearing mice (stomach) of 1.47 ± 0.44 ID/g in %. The compound also registered a tail uptake in the data set on T-47D tumor-bearing mice (tail) of 1.30 ± 1.21 ID/g in %. In the data set on T-47D tumor-bearing mice (tumor), this compound had a tumor uptake of 3.07 ± 0.33 ID/g in %. The compound further registered a pH-dependent lipophilicity (logD) in data set [2] of -1.67 ± 0.086. For the same compound, in data set [3], the “degradation in human serum” value was “no observable fragmentation”.
Regarding `CCCC[C@H](NC(=O)[C@H](CCCNC(=N)N)NC(=O)[C@H](Cc1c[nH]c2ccccc12)NC(=O)[C@H](CCCCNC(=O)CON=Cc1ccc(C(=O)NC2CCN(CC(=O)NCCCN(CCCNC(=O)CN3CCC(NC(=O)c4ccc(C=NOCC(=O)NCCOCCOCCOCCOCCC(=O)N[C@@H](CCC(N)=O)C(=O)N[C@@H](Cc5c[nH]c6ccccc56)C(=O)N[C@@H](C)C(=O)N[C@H](C(=O)NCC(=O)N[C@@H](Cc5c[nH]cn5)C(=O)N[C@@H](CC(C)C)C(=O)N[C@@H](CCSC)C(N)=O)C(C)C)cc4)CC3)CC(=O)NCCOCCOCCOCCOCCC(=O)N[C@@H](CCCCNC(=O)CCC(C(=O)O)N3CCN(CC(=O)O)CCN(CC(=O)O)CC3)C(N)=O)CC2)cc1)NC(=O)[C@@H]1CCCN1C(=O)[C@H](CC(N)=O)NC(=O)[C@@H](N)[C@@H](C)CC)C(=O)N[C@@H](CCCNC(=N)N)C(=O)N[C@@H](Cc1ccc(O)cc1)C(N)=O` (some centres unmarked) [[^68Ga]25, metal not drawn], in the data set with T-47D cells, the specific cell uptake is reported as 48.2 ± 2.8%. The compound also had a pH-dependent lipophilicity (logD) in data set [2] of -1.55 ± 0.114.
Take `CCCC[C@H](NC(=O)[C@H](CCCNC(=N)N)NC(=O)[C@H](Cc1c[nH]c2ccccc12)NC(=O)[C@H](CCCCNC(=O)CON=Cc1ccc(C(=O)NC2CCN(CC(=O)NC3CCN(CC(=O)NCCCN(CCCNC(=O)CN4CCC(NC(=O)CN5CCC(NC(=O)c6ccc(C=NOCC(=O)NCCOCCOCCOCCOCCC(=O)N[C@@H](CCC(N)=O)C(=O)N[C@@H](Cc7c[nH]c8ccccc78)C(=O)N[C@@H](C)C(=O)N[C@H](C(=O)NCC(=O)N[C@@H](Cc7c[nH]cn7)C(=O)N[C@@H](CC(C)C)C(=O)N[C@@H](CCSC)C(N)=O)C(C)C)cc6)CC5)CC4)CC(=O)NCCOCCOCCOCCOCCC(=O)N[C@@H](CCCCNC(=O)CCC(C(=O)O)N4CCN(CC(=O)O)CCN(CC(=O)O)CC4)C(N)=O)CC3)CC2)cc1)NC(=O)[C@@H]1CCCN1C(=O)[C@H](CC(N)=O)NC(=O)[C@@H](N)[C@@H](C)CC)C(=O)N[C@@H](CCCNC(=N)N)C(=O)N[C@@H](Cc1ccc(O)cc1)C(N)=O` (some centres unmarked) [[^68Ga]26, metal not drawn]: the specific cell uptake with T-47D cells was determined as 46.4 ± 2.4%. Besides, in data set [2], the log distribution coefficient (logD) was -1.52 ± 0.089.

In general, logD refers to lipophilicity at a set pH, counting ionised and neutral species.
